This note sets out measurements from patent US20260007697A1 (FUNDACI N PARA LA INVESTIGACI N M DICA APLICADA, published 2026).

In assay [1] the target is recombinant human EDA protein (extra-domain A of fibronectin), His-tagged (human) (UniProt P02751). As to the kind of experiment: flow cytometry, CD4+ control PSMA CAR-T cells incubated with soluble human His-EDA (50 µg/ml per legend paragraph 32), anti-His-APC; light grey histogram, lower number of the panel humanEDA, CD4 row [cont.) C]. A general note: A flow cytometer gives signals particle by particle.
recombinant human EDA protein (extra-domain A of fibronectin), His-tagged (human), sequence (P02751 1722-1811 limits assumed): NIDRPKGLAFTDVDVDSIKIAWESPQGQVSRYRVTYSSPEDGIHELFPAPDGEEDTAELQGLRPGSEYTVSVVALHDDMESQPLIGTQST

Assay [2] has as its target recombinant mouse EDA protein (extra-domain A of fibronectin), His-tagged (mouse) (UniProt P11276). As to the kind of experiment: flow cytometry, CD4+ control PSMA CAR-T cells incubated with soluble mouse His-EDA (50 µg/ml per legend paragraph 32), anti-His-APC; light grey histogram, lower number of the panel mouseEDA, CD4 row [cont.) C].
In assay [3] the target is recombinant human EDA protein (extra-domain A of fibronectin), His-tagged (human) (UniProt P02751). The experiment in a line: flow cytometry, CD8+ control PSMA CAR-T cells incubated with soluble human His-EDA (50 µg/ml per legend paragraph 32), anti-His-APC; light grey histogram, lower number of the panel humanEDA, CD8 row [cont.) C].
The target in assay [4] is recombinant mouse EDA protein (extra-domain A of fibronectin), His-tagged (mouse) (UniProt P11276). The experiment in a line: flow cytometry, CD8+ control PSMA CAR-T cells incubated with soluble mouse His-EDA (50 µg/ml per legend paragraph 32), anti-His-APC; light grey histogram, lower number of the panel mouseEDA, CD8 row [cont.) C].
recombinant mouse EDA protein (extra-domain A of fibronectin), His-tagged (mouse), sequence (P11276 1721-1810 limits assumed): as the sequence (P02751 1722-1811 limits assumed) above, with H44R, E54D, T87I counted along it
The target of assay [5] is T1, recombinant mouse EDA protein (extra-domain A of fibronectin), His-tagged (mouse, UniProt P11276 1721-1810).
T1 construct: Recombinant protein carrying a His tag; also called murine EDA; EDA (m)
T1 sequence (P11276 1721-1810 limits assumed): as the sequence (P02751 1722-1811 limits assumed) above, with H44R, E54D, T87I counted along it
The experiment in a line: IFN-gamma release (ELISA) by CAR-T cells on EDA-coated plates, 48 h (functional read-out, not direct binding). The procedure: Also CAR-T cells were plated for 24 h in the presence of irradiated PM299L-EDA and PM299L-Thy1.1 cells. The number of IFN-γ producing cells was measured by ELISPOT as described by Lozano et al. (Lozano T et al., 2019). CAR-T cell proliferation and IFN-γ production were measured by 3H-thymidine incorporation (0.5 μCi per well) and ELISA, respectively, as described by Casares et al. (Casares N et al., 2010). In some cases, CAR-T cell proliferation was measured by Cell trace violet (CTV) dilution assay; Lymphocytes were incubated with the dye (5 μM) for 15 minutes at 37° C. and washed with RPMI 10% FBS. 8×10⁵ labelled lymphocytes were plated and co-incubated with PM299L-EDA^high and PM299L-Thy1.1 tumor cells at a ratio of 1:1 for 72 hours at 37° C. Subsequently, the proliferating population (measured by CTV dilution) was analyzed within GFP+ lymphocytes. The proliferation index was calculated as the ratio between proliferating cells in the presence of tumor cells expressing EDA (PM299L-EDA^high) and the number of proliferating cells in the presence of tumor cells not expressing EDA (PM299L. Thy1.1) at the end of the co-culture.
EDA CAR-T cells were generated by retroviral transduction of CD4⁺ or CD8⁺ T cells with the corresponding retrovirus. Five days after infection, T cells were analyzed by flow cytometry. […] IFN-g released to the culture supernatant was measured by ELISA.
A general note: An ELISA detects its analyte on a solid surface through an enzyme-linked reagent.

The target in assay [6] is T2, recombinant human EDA protein (extra-domain A of fibronectin), His-tagged (human, UniProt P02751 1722-1811).
T2 construct: Recombinant protein carrying a His tag; also called hEDA; EDA (h)
T2 sequence (P02751 1722-1811 limits assumed): as the sequence (P02751 1722-1811 limits assumed) above
As to the kind of experiment: Bio-Layer Interferometry (Octet N1), scFv F8 on AR2G biosensors, soluble EDA. The procedure: (§1) The resulting plasmid was transfected into BL21(DE3) cells for the expression of the recombinant scFv which was purified by affinity chromatography using protein A Sepharose (Amersham Biosciences) according to the manufacturer's instructions. Purified antibody fragments were analyzed by Coomassie and Western blot using anti-His antibodies. Recognition of EDA protein by the purified scFv F8 fragment was tested by ELISA using plates coated with recombinant EDA protein produced as described previously (Lasarte J J et al., 2007). The equilibrium dissociation constant (KD) of scFv F8 to soluble human and mouse EDAs was calculated by Bio-Layer Interferometry (BLI) using an Octet N1 (Sartorius) (FIG. 13). The scFv F8 was coated to the AR2G Biosensors (Fortébio) following manufacturer's instructions.
(§2) To evaluate the functionality of the CAR construct, EDA CAR-T cells were cultured in EDA coated plates for 48 h. Both CD4+ and CD8+ EDA CAR-T, but not PSMA CAR-T cells produced high amounts of IFN-γ (FIG. 3D) and proliferated in response to EDA (FIG. 3E). […] This discrepancy could be due to the methodological differences between assays. Indeed, in the binding experiments EDA proteins are added in solution and bind to the CAR-T cells directly. […]

Assay [7] has as its target T1, recombinant mouse EDA protein …. The description is as above. As to the method: as §1, §2
Assay [8] concerns the target T2, recombinant human EDA protein …. As to the kind of experiment: Bio-Layer Interferometry (Octet N1), scFv F8 on AR2G biosensors, soluble hEDA at 1, 2, 4 and 8 uM; table column Kd (1/s) [cont.) E].
Excerpt: as §1, with “A DNA sequence coding for the scFv recombinant antibody fragment F8 (Rybak J N et al., 2007) was cloned in pET20b plasmid (Novagen), which enables expression of fusion proteins carrying six histidine residues at the carboxyl terminus. The resulting” for “The resulting”
On the technique in general: In BLI a coated tip is dipped into the sample, and binding shifts an interference pattern.

Assay [9] concerns the target T1, recombinant mouse EDA protein …. The experiment in a line: Bio-Layer Interferometry (Octet N1), scFv F8 on AR2G biosensors, soluble mEDA at 1, 2, 4 and 8 uM; table column Kd (1/s) [cont.) E].
Excerpt: as §1, with “A DNA sequence coding for the scFv recombinant antibody fragment F8 (Rybak J N et al., 2007) was cloned in pET20b plasmid (Novagen), which enables expression of fusion proteins carrying six histidine residues at the carboxyl terminus. The resulting” for “The resulting”

By Kd is commonly meant the concentration at which binding is half-saturated. As usually defined, the koff is the rate constant with which the complex falls apart.

For the molecule “PSMA CAR (anti-human PSMA scFv from mouse hybridoma J591 in the murine 4-1BB-CD3zeta cassette) on mouse T cells”, the MFI (mean fluorescence intensity) was found to be 269 in [1], 49 in assay [2], 203 in [3] and 46 in [4].

B1: chimeric EDA CAR with anti-EDA C27 scFv (VH/VL of antibody 27A12.70) in the murine 4-1BB-CD3zeta cassette, on mouse T cells (other)
chain: DVQLQESGPDLVKPSQSLSLTCTVTGYSITSGYSWHWIRQFPGNKLEWMGYIHYSGIANYNPSLKSRISITRDTSKNHFFLQLNSVTTEDTATYYCATEKTGFFDYWGQGTTLTVSSGGGGSGGGGSGGGGSGGGGSDVVMTQTPLSLPVSLGDQASISCRSSQSLVHSNGNTYLHWYLQKPGQSPKLLIYKVSNRFSGVPDRFSGSGSGTDFTLKISRVEAEDLGVYFCSQSAHVPPTFGGGTKLEIKR
notes: also called C27 EDA CAR-T; clone C27; not shown: limits on that entry
Consider B1, for which the binding result in assay [5] is “no binding (tested: 5 µg/ml coated (FIG. 14 legend))”.

B2: anti-EDA F8 scFv (purified recombinant antibody fragment) (scFv)
scFv: EVQLLESGGGLVQPGGSLRLSCAASGFTFSVMKMSWVRQAPGKGLEWVSAISGSGGSTYYADSVKGRFTISRDNSKNTLYLQMNSLRAEDTAVYYCAKSTHLYLFDYWGQGTLVTVSSGGGGSGGGGSGGGGSGGGGSEIVLTQSPGTLSLSPGERATLSCRASQSVSNAFLAWYQQKPGQAPRLLIYGASSRATGIPDRFSGSGSGTDFTLTISRLEPEDFAVYYCQQMRGRPPTFGQGTKVEIKHHHHHH
notes: Expressed in E. coli BL21(DE3) from pET20b and purified on protein A Sepharose; also called scFv F8; scFv (F8)
Take B2: the Kd in assay [6] is 77.6 nM; in assay [7], 99.5 nM. The koff amounted to 0.000532 s⁻¹ in assay [8] and 0.000342 s⁻¹ in [9].
